From publication PMC7474598 come the findings set out here.

Test [1] addresses FLAG-SEPN1^D80A (human) (UniProt Q9NZV5). Nature of the test: sucrose gradient sedimentation; lysates of HeLa cells treated for 2 h with DMSO or Tg; 4% to 20% sucrose gradients, 19 fractions, FLAG immunoblot; markers BSA, IgG, catalase.
The target of test [2] is FLAG-SEPN1^U428C (human) (UniProt Q9NZV5). Described as above.

For “FLAG-SEPN1^D80A (from UniProt Q9NZV5-2 44-556) (natural protein)”, in test [1], the percent monomer (DMSO-treated cells) stood at 79.7%, the percent monomer (Tg-treated cells) is 78.4%, the percent oligomer (DMSO-treated cells) came out at 21.5% and the percent oligomer (Tg-treated cells) worked out at 21.5%.

Turning to “FLAG-SEPN1^U428C (from UniProt Q9NZV5-2 44-556) (natural protein)”, in test [2], the percent monomer (Tg-treated cells) was 61.8% and the percent oligomer (DMSO-treated cells) stood at 96.2%.
